The results in this text go back to US20130035289A1, “PHARMACEUTICAL COMPOSITION FOR TREATMENT OF THROMBOSIS-RELATED DISEASES COMPRISING A FRAGMENT OF PROLACTIN (PRL)-GROWTH HORMONE (GH)-PLACENTAL LACTOGEN (PL)-FAMILY PROTEIN” (UNIVERSITE DE LIEGE, priority 2010, published 2013).

Test [1] has as its target T1, uPA (Homo sapiens, UniProt P00749+P05121).
T1 construct: endogenous in cells; host or cells: HUVEC
The test is described as follows: Double immunofluorescence staining on HUVEC, co-localization with uPA. It counts as cell-based. Particulars: non permeabilized, 160 ng/ml. On the procedure:
HUVEC were grown to 70% on gelatin-coated 35 mm dishes. After incubation at 37° C. with 14K hGH (160 ng/ml) or 16K hPRL (160 ng/ml), cells were washed with PBS at room temperature, non permeabilized and incubated for 1 hr at room temperature with mouse anti uPA (American Diagnostica INC. Greenwich, Conn.) 1/100, Rabbit anti Prolactin (Dako) 1/100 or rabbit anti human GH (home made) 1/100. Endothelial cells were washed in PBS and incubated with FITC horse anti mouse antibody (Vector Laboratory) and Texas Red Goat anti rabbit (Jackson Laboratory).
HUVECs were grown to 70% confluence on gelatin-coated 35-mm dishes. After incubation for 3 h with 14K GH (160 ng/ml) or 16K PRL (160 ng/ml), the cells were washed with PBS at room temperature and incubated for 1 h at room temperature under non-permeabilization conditions with mouse anti uPA (American Diagnostica INC) diluted 1/100, rabbit anti prolactin (Dako) diluted 1/100, or rabbit anti human GH (home made) diluted 1/100. Endothelial cells were washed in PBS and incubated with FITC horse anti mouse (Vector Laboratory) and Texas red goat anti rabbit antibodies (Jackson Laboratory). […] After 3 washes in PBS for 10 min, the slides were covered with coverslips in mounting medium (Victor Laboratories Inc.) and analyzed by fluorescence microscopy.

Test [2] addresses T2, PAI-1 (Homo sapiens, UniProt P05121).
T2 construct: gift of Pr; P. Declerck
The test is described as follows: Gal4 yeast two-hybrid system. The format is binding.

Test [3] relates to endothelial cells. The test is described as follows: Endothelial cell adhesion assay on vitronectin. It counts as cell-based, bovine. To be noted: for increase of cell adhesion: absence of PAI-1 (si-RNA); for pro-adhesion effect: recombinant wild type PAI-1 added to culture medium. An excerpt: ID NO: 35); PAI-1 […] ID NO: 36).
Test [4] addresses T2, PAI-1. The test is described as follows: In vitro clot lysis assay in pooled normal human plasma with added PAI-1 and tPA. It counts as biochemical. Particulars: 3 μM protein, recombinant PAI-1, tPA. As to the method:
Clot lysis was performed as follows: pooled normal plasma were used in citrated tube. Recombinant wild type PAI-1 was incubated in the presence or in the absence of 16K hPRL (3 μM), 14K hGH (3 μM) or different peptides (25 μM) for 10 min at 37° C., before to be added to diluted plasma in tris tween buffer (75 μl of plasma in 200 μl of 10 mM TRIS pH 7.5, 0.01% tween 20), followed by a second incubation for 10 min at 37° C. tPA was added to each tube at the end to reach a final volume of […]. Aliquots from each tube (80 μl) were added in duplicate to 96 wells, each containing 20 μl CaCl2 to give the following final concentration per well of 10 mM. Clot formation and dissolution were monitored at RT measuring turbidity at 405 nm in 5 min intervals.

Test [5] deals with uPA. The test is described as follows: Immunoprecipitation with uPA in presence or absence of PAI-1. It counts as binding. As to the method: Western blot analysis of 16K PRL and 14K GH after their immunoprecipitation with uPA in the presence or in the absence of PAI-1. r14K GH and r16K PRL: recombinant proteins controls loaded on gels, no IP performed. (b) HUVEC were incubated with 14K GH or 16K PRL for 2 hours and then subjected to immunofluorescence analysis for uPA and 14K GH or 16K PRL Labellings appears in white for uPA (left panels), 14K GH or 16K PRL (middle panels).

Test [6] deals with T2, PAI-1. The test is described as follows: Co-immunoprecipitation with anti-PAI-1 antibody and Western blot, human PAI-1. The format is binding. Particulars: for complex with recombinant wild type PAI-1 (co-immunoprecipitation): 10 min at 37° C.; for complex with endogenous PAI-1 from HUVEC culture medium: conditioned medium of HUVEC; for interaction with PAI-1 in plasma samples: human plasma. As to the method: The interaction was further confirmed by pull-down affinity assays. For the immunoprecipitation 4 μg of recombinant 16K hPRL or 14 hGH were mixed with 3 μg of recombinant wt PAI-1, 500 μl of conditioned media from HUVEC cells, 300 μl of human plasma or 100 μl of mouse plasma. The mixtures were incubated for 10 min at 37° C. 6 μg of mouse monoclonal antibody against PAI-1 (clone 33H1F7, recognize human and mouse PAI-1) was added to each tube and incubated overnight at 4° C. under rotation. For the experiments with mice expressing 16K hPRL, 300 μl of plasma from mice injected with Null-Ad or 16K-Ad adenovirus were collected 5 days after virus injection, and immunoprecipitation was performed as described above with same PAI-1 monoclonal antibody (33H1F7). Fifty microliters of protein A agarose was added to the mix and incubated overnight at 4° C. under rotation. After centrifugation for 1 min at 6000 rpm the supernatants were discarded and the pellets (containing the beads) were washed 5 times with PBS. After a new centrifugation, the beads were resuspended in 30 μl 1×β-mercaptoethanol loading buffer and boiled at 100° C. for 5 min, then left on ice for 5 min. The beads were centrifuged for 5 min at 4° C., then the supernatants were subjected to SDS-PAGE (12% acrylamide) for Western blot analysis.
For Western Blot Analysis cytoplasmic cell lysate, samples of different CoIP and mouse plasma were separated by SDS-PAGE (12% and 10%) and transferred to a polyvinylidene fluoride membrane (Milipore Corp., Bedford, Mass.). Blots were blocked overnight with 5% milk in Tris-buffered saline with 0.1% Tween 20 and probed for 1 h at RT with primary antibodies: rabbit polyclonal anti-hPRL (DAKO) or rabbit polyclonal anti hGH (home made). After three washes with Tris-buffered saline containing 0.1% Tween 20, antigen-antibody complexes were detected with peroxidase-conjugated goat anti-rabbit secondary antibody and an enhanced fluoro-chemiluminescent system (ECL-plus; Amersham Biosciences, Arlington Heights, Ill.).
Background: In western blotting, separated proteins are transferred to a membrane and probed.

Setting [7] is: absence of PAI-1, data not shown.

T2 sequence (P05121 24-402): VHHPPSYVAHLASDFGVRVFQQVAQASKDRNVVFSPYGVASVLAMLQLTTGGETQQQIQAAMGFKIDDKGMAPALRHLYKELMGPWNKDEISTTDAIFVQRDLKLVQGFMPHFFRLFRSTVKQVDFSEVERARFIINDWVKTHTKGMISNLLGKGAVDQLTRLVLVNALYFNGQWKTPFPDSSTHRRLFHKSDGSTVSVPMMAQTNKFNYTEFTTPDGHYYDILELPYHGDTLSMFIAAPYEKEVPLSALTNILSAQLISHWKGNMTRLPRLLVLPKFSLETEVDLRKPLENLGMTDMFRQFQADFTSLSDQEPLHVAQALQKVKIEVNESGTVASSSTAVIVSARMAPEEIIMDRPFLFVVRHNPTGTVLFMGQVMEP

B1: 16K hPRL: 16K N-terminal human prolactin fragment, recombinant, produced and purified from E. coli (protein)
chain: LPICPGGAARCQVTLRDLFDRAVVLSHYIHNLSSEMFSEFDKRYTHGRGFITKAINSCHTSSLATPEDKEQAQQMNQKDFLSLIVSILRSWNEPLYHLVTEVRGMQEAPEAILSKAVEIEEQTKRLLEGMELIVSQVHP
On to B1, for which the “co-localization with uPA” value in test [1] was “co-localised at the cell surface”. Further, the “interaction with PAI-1 in yeast two-hybrid system” value in test [2] was “interacts”. For the same molecule, in test [3], the “increase of cell adhesion” value is “not seen” and the pro-adhesion effect entry is “reduced significantly”. The “clot lysis in human plasmas” value in test [4] was “increased significantly”. Further, the “complex with uPA (immunoprecipitation)” value in test [5] (setting [7]) is on record as “does not form complex”. Also, the “complex with uPA (immunoprecipitation)” value in test [5] (in the presence of PAI-1) is “formation of uPA/PAI-1/16K PRL”. In test [6], the “complex with recombinant wild type PAI-1 (co-immunoprecipitation)” value is reported as “formation of 16K PRL/PAI-1”, the “complex with endogenous PAI-1 from HUVEC culture medium” value was “able to form a complex” and the “interaction with PAI-1 in plasma samples” value was “interaction was also demonstrated”.

B2: 14K hGH: 14K N-terminal fragment of human growth hormone, recombinant, produced and purified from E. coli (protein)
chain: MFPTIPLSRLFDNAMLRAHRLHQLAFDTYQEFEEAYIPKEQKYSFLQNPQTSLSFSESIPTPSNREETQQKSNLELLRISLLLIQSWLEPVQFLRSVFANSLVYGASDSNVYDLLKDLEEGIQTLMGRLEDGSP
As to B2, the “co-localization with uPA” value in test [1] is listed as “co-localised at the cell surface”. In addition, the “interaction with PAI-1 in yeast two-hybrid system” value in test [2] is recorded as “found to interact”. Moreover, in test [3], the “increase of cell adhesion” value is recorded as “not seen” and the pro-adhesion effect entry is recorded as “reduced significantly”. Moreover, the “clot lysis in human plasmas” value in test [4] is listed as “increased significantly”. The “complex with uPA (immunoprecipitation)” value in test [5] (setting [7]) was “does not form complex”. Also, in test [5] (in the presence of PAI-1), the “complex with uPA (immunoprecipitation)” value is recorded as “uPA/PAI-1/14K GH complexes”. In addition, in test [6], the “complex with recombinant wild type PAI-1 (co-immunoprecipitation)” value was 14K GH/PAI-1, the “complex with endogenous PAI-1 from HUVEC culture medium” value was “able to form a complex” and the “interaction with PAI-1 in plasma samples” value is “interaction was also demonstrated”.
